Results as given in patent US20260275311, “CRISPR NUCLEASE POLYPEPTIDES AND GENE EDITING SYSTEMS COMPRISING SUCH” (ARBOR BIOTECHNOLOGIES, INC., published 2026).
Numbering of substitutions follows the chain as printed.

How the values were obtained:
[1] = molecular target: T1, Nuclease A; assay: cell_activity; PAM NGG (GGG); HEK293T; conditions: tags: N-terminal SV40 NLS, C-terminal XTEN linker + nucleoplasmin NLS
T1 chain: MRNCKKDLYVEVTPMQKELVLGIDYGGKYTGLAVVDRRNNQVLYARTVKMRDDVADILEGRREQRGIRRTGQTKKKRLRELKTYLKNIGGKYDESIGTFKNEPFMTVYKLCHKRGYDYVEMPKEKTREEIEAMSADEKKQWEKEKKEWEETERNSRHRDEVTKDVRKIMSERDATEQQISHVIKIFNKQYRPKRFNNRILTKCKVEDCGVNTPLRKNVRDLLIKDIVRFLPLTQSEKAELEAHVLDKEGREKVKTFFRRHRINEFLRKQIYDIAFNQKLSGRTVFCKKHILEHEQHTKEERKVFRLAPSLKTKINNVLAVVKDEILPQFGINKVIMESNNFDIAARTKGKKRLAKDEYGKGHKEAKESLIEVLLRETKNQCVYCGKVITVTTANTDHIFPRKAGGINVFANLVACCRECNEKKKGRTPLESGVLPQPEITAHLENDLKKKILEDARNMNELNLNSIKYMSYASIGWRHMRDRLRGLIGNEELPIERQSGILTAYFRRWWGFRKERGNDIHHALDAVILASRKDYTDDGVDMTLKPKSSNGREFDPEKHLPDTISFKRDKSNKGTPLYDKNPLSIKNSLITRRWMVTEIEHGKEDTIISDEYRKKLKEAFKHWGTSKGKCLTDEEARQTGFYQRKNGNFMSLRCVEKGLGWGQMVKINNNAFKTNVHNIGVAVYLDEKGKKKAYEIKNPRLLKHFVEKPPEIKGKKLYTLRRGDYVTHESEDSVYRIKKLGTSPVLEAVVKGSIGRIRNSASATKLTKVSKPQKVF
Description: (§1) Approximately 16 hours prior to transfection, 25,000 HEK293T cells in DMEM/10% FBS+Pen/Strep (D10 media) were plated into each well of a 96-well plate. On the day of transfection, the cells were 50-90% confluent. For each well to be transfected, a mixture of Lipofectamine 2000™ (ThermoFisher Scientific) and Opti-MEM™ (ThermoFisher Scientific) was prepared and incubated at room temperature for 5 minutes (Solution 1). After incubation, the Lipofectamine 2000™: Opti-MEM™ mixture was added to a separate mixture containing the CRISPR nuclease plasmid (NLS-tagged), RNA guide plasmid, and Opti-MEM™ (Solution 2). In the case of negative controls, the CRISPR nuclease plasmid was excluded. Solutions 1 and 2 were mixed by pipetting up and down, then incubated at room temperature for 25 minutes. Following incubation, the Solution 1 and 2 mixture was added dropwise to each well of a 96-well plate containing the cells. […]
(§2) Each Nuclease A variant and RNA guide (see Table 5) was cloned as described in Example 2. […] For each target, indel ratios, referring to the percentage of NGS reads comprising indels, were calculated for Nuclease A (SEQ ID NO: 1) and for each variant of Nuclease A. The indel ratios shown in Table 6 were calculated as the average of two bioreplicates, each of which contained two technical replicates.

[2] = molecular target: T2, Nuclease A I67R/D568R/E706R; assay: cell_activity; PAM NGG (GGG); HEK293T; conditions: tags: N-terminal SV40 NLS, C-terminal XTEN linker + nucleoplasmin NLS
T2 chain: T1 chain with I67R, D568R, E706R
Description: as §1, §2

[3] = molecular target: T3, Nuclease K D582R/G42R (D582R,G42R); assay: cell_activity; PAM NGG; HEK293T; conditions: tags: N- and C-terminal NLS
T3 chain: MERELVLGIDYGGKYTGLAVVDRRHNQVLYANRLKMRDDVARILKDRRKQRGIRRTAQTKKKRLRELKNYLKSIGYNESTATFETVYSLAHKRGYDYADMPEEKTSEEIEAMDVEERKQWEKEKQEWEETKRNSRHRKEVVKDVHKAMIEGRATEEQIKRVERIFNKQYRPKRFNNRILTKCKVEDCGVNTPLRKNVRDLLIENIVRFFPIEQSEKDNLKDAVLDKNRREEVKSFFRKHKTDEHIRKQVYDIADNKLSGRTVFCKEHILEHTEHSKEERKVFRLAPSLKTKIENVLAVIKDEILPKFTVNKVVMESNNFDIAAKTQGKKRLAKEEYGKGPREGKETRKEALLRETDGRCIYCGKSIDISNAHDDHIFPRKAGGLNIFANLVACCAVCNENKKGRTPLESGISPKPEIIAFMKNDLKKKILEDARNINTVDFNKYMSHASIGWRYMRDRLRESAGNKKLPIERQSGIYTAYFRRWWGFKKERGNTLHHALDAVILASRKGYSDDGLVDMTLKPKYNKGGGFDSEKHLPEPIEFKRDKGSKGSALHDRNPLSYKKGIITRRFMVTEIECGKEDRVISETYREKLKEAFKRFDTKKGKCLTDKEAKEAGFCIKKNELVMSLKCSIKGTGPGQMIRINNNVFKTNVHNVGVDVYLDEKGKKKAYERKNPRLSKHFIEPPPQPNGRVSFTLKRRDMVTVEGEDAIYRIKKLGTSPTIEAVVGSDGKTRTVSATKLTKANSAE
Description: (§3) This Example describes indel assessment on mammalian targets using nuclease variants of Nuclease K comprising two or more substitutions identified as increasing indel activity in Example 8. 71 combination Nuclease K variants were tested.
(§4) Each Nuclease K variant and RNA guide (see Table 19) was cloned as described in Example 8. HEK293T cells were further transfected, followed by NGS analysis, as described in Example 8. For each target, indel ratios, referring to the percentage of NGS reads comprising indels, were calculated for the reference Nuclease K (SEQ ID NO: 65) and for each Nuclease K variant. The indel ratios shown in Table 20 were calculated as the average of two bioreplicates, each of which contained two technical replicates.

[4] = molecular target: T4, Nuclease K D582R/I53R/T734R (D582R,I53R,T734R); assay: cell_activity; PAM NGG; HEK293T; conditions: tags: N- and C-terminal NLS
T4 chain: T3 chain with R42G, I53R, T734R
Description: as §3, §4

[5] = molecular target: T5, Nuclease K; assay: cell_activity; PAM NGG (AGG); HEK293T; conditions: tags: N-terminal SV40 NLS, C-terminal nucleoplasmin NLS
T5 chain: T3 chain with R42G, R582D

B1: Nuclease A EMX1-T7 guide ; EMX1-T7 target (ssRNA ; dsDNA)
RNA: CUUUAGCAAGGGACUAUUCAGUUACAGUUAAGGCUCUUUGGAAACAAAGAAGCCUUAAUUGUAAAACGCCUAUAUGGUAAAGUGAUGUACGUUUGGGUAUAUAUCGCCAGCCUGAACCUCUACGCCAGAAAUGGCAGCUUUAUCAUGGGUUAGGACGAUAUUUAAAAAACUUUCUGCGGCUUGCUUACUUUAGUAAGCUUUGUGGCUGAGGCAGAAUUCCUU
DNA 1: CTTTAGCAAGGGACTATTCA
DNA 2: TGAATAGTCCCTTGCTAAAG
activity [1]: 0.033 indel ratio
activity [2]: 0.337 indel ratio

B2: Nuclease K VEGFA-T6 guide ; VEGFA-T6 target (ssRNA ; dsDNA)
RNA: UUUGCCCAUACUGGGGACCAGUUACAGUUAAGGCUCUGAAAAGAGCCUUAAUUGUAAAACGCCUAUACAGUGAAGGGAUAUACGCUUGGGUUUGUCCAGCCUGAGCCUCUAUGCCAGAAAUGGCGCCUUCAUCGUGGGUUAGGACAUUUAAAUUUAAAAACUAUUCAGCACUGUUUGCUCUUGUCAGCUUGGUGGCAGA
DNA 1: TTTGCCCATACTGGGGACCA
DNA 2: TGGTCCCCAGTATGGGCAAA
activity [3]: 0.153 indel ratio
activity [4]: 0.097 indel ratio
activity [5]: 0.009 indel ratio
